Experimental data reported in patent publication US20240369568A1.

What was measured:
Test in all cases: SPR, release and stability method, specific binding activity
FcRn = FcRn (UniProt P55899)
[1] = target: BCMA (the 'Antigen' of the SPR antigen binding assay) (human) (UniProt Q02223)
FcγRIIIa = FcγRIIIa (UniProt P08637)
FcγRIIIa, sequence (P08637 17-208 limits assumed): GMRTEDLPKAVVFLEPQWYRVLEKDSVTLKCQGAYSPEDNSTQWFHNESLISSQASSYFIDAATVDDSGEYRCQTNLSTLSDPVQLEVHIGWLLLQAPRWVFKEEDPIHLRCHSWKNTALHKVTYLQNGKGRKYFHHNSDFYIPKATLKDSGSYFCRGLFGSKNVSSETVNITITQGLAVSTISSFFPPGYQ

BCMA (the 'Antigen' of the SPR antigen binding assay) (human), sequence (Q02223 1-54 limits assumed): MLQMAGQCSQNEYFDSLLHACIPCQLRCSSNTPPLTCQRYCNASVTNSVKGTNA

FcRNn Binding (%) (specific binding activity) (FcRn): 101%
Antigen Binding (%) (specific binding activity) [1]: 96%
FcyRIIIa Binding (%) (specific binding activity) (FcγRIIIa): 97%
Substance: Control (sample of Table 11)
